# T1: melatonin ML1B receptor (Homo sapiens, UniProt P49286)
# T1 construct: expressed in transfected cells; host or cells: Saccharomyces cerevisiae strains MMY9 and MMY11, plasmid pDT-PGK-ML1B
# T1 sequence (P49286 1-362): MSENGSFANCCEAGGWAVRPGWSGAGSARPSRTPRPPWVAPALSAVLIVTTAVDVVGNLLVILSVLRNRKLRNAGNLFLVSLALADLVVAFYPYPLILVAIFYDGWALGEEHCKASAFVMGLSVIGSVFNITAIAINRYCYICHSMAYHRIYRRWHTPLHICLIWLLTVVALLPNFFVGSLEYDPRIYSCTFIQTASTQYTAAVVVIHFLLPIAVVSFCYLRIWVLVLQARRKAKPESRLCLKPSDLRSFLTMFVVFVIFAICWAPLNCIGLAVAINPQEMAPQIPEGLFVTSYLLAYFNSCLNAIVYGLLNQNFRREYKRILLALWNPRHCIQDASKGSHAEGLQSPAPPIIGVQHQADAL
# T2: Ste2p (Saccharomyces cerevisiae, UniProt D6VTK4)
# T2 sequence (D6VTK4 1-431): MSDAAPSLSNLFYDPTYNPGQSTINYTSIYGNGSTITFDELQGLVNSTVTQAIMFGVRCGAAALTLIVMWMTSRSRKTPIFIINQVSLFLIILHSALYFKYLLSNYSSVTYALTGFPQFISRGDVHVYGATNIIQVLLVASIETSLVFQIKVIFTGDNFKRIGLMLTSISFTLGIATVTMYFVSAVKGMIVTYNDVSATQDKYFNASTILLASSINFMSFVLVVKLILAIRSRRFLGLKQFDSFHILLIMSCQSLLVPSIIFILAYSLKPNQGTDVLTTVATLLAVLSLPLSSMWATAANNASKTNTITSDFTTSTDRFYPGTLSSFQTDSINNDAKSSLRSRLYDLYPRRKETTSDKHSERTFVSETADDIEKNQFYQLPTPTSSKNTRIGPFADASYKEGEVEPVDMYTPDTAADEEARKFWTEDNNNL
# How the values were obtained:
# [1] = system: pheromone response pathway (FUS1-LacZ; Ste2p receptor); assay: ONPG β-galactosidase assay of FUS1-LacZ in extracts of MMY9 cells; assay type: cell-based, Saccharomyces cerevisiae; settings: G protein expressed from GPA1 promoter
# Procedure: Assays for FUS1-IacZ Expression. β-galactosidase activities in cell extracts were measured with two assays. In the first assay (ONPG assay), cell extracts were incubated with the substrate ONPG as described by (37). Units were defined as (A420×1000)/(OD600x×t×v) (25). In the chemiluminescent assay, cells were grown to late logarithmic phase and diluted to 0.02 OD600 in 100 μl SC-WH medium in the presence or absence of 1 μM α-factor in 96-well microtitre plates. After incubation (30° C.; 6 hours), 20 μl of cells were removed and mixed with 20 μl assay mix (125 mM sodium phosphate pH 7.6, 15 mM MgSO4, 200 μM Galacton-Star β-galactosidase substrate (Tropix), 10% (v/v) Sapphire II (Tropix), 1 U/μl oxalyticase (Enzogenetics)). After incubation (30° C.; 1 hr) chemiluminescence was determined in a Top-count scintillation counter (Packard).
# The Gα15/Gα16 subunits are reported to interact with a much broader range of receptors than is typical for a Gα subunit, and have the ability to couple receptors which normally interact with Gαi, Gαs or Gαq (26). […] We constructed a plasmid encoding a Gpa1/Gα16 C-terminal domain chimera (pRS314-Gpa1/Gα16; FIG. 5b); FIG. 6h) derived from the same centromeric vector as used for expression of functional chimeras described above. The level of FUS1-LacZ induction in MMY9 cells expressing the Gpa1/Gα16 chimera was determined by preparing cell extracts, and incubating them with the LacZ substrate o-Nitrophenyl β-D-galactopyranoside (ONPG; see Materials and Methods). Gpa1/Gα16 reduced FUS1-LacZ expression resulting in β-galactosidase activity of 79+/−8 units (Table 2). This level was intermediate between the activity of control cells transformed with vector (239+/−30 units), in which the pathway is constitutively activated due to the absence of Gα, and the basal activity in cells producing wild-type Gpa1p (19+/−4 units).
# melatonin ML1B receptor = target: T1, melatonin ML1B receptor; assay: Reverse halo assay for FUS1-HIS3 expression, MMY9 cells, ML1B; assay type: cell-based; settings: MMY9 cells with pRS314-GPA1 and ML1B receptor, 40 nmol melatonin
# Procedure: (§1) Assay for FUS1-HIS3 Expression. Reverse halo assays were carried out by growing MMY9 cells to early stationary phase (OD600≈4) in liquid SC-glucose (2%) medium lacking tryptophan and uracil. A uniform layer of cells (5×10^7) was plated to 22.5 cm by 22.5 cm bioassay dishes (Nunc) in 100 ml SC-glucose agar (1%) equilibrated to 50° C. This medium lacked tryptophan, uracil and histidine, and was supplemented with 10 mM 3-aminotriazole, and buffered to pH 7.0 with 0.1M sodium phosphate. Antibiotic discs were placed on the solidified agar, and a volume of agonist solution (1-5 μl) was applied to each disc. Plates were incubated at 30° C. for 3 days.
# (§2) The four receptors were: the melatonin ML1B receptor, the serotonin 5HT1A receptor, the somatostatin SST2 receptor and the purinergic nucleotide receptor, P2Y2. […] Activation of the pheromone response pathway was monitored with two integrated reporter genes: […] allowing a growth readout in medium lacking histidine, and FUS1-lacZ allowing a β-galactosidase readout. […] Agonist-dependent activation of FUS1-HIS3 was determined by reverse halo assay in which agonists were applied to the filter discs in the arrangement shown in panel A, in quantities as follows: 3 nmol of somatostatin-14 (S-14); 40 nmol of melatonin (Mel); 3 nmol of α-factor; 100 nmol of UTP; 40 nmol of serotonin (5-HT). […]
# Ste2p = target: T2, Ste2p; assay: Reverse halo assay for FUS1-HIS3 expression, MMY9 cells, Ste2p; assay type: cell-based; design: stimulates the endogenous yeast receptor Ste2p; endogenous in cells; host or cells: Saccharomyces cerevisiae strain MMY9 (derived from W303-1A, MATa); settings: MMY9 cells with pRS314-GPA1, 3 nmol α-factor
# Procedure: as §1, §2
molecule,measurement,setting,value
"Gpa1p: endogenous yeast Gα subunit, product of the GPA1 gene (protein, UniProt P08539 2-472, looked up) Guanine nucleotide-binding …: GCTVSTQTIGDESDPFLQNKRANDVIEQSLQLEKQRDKNEIKLLLLGAGESGKSTVLKQLKLLHQGGFSHQERLQYAQVIWADAIQSMKILIIQARKLGIQLDCDDPINNKDLFACKRILLKAKALDYINASVAGGSDFLNDYVLKYSERYETRRRVQSTGRAKAAFDEDGNISNVKSDTDRDAETVTQNEDADRNNSSRINLQDICKDLNQEGDDQMFVRKTSREIQGQNRRNLIHEDIAKAIKQLWNNDKGIKQCFARSNEFQLEGSAAYYFDNIEKFASPNYVCTDEDILKGRIKTTGITETEFNIGSSKFKVLDAGGQRSERKKWIHCFEGITAVLFVLAMSEYDQMLFEDERVNRMHESIMLFDTLLNSKWFKDTPFILFLNKIDLFEEKVKSMPIRKYFPDYQGRVGDAEAGLKYFEKIFLSLNKTNKPIYVKRTCATDTQTMKFVLSAVTDLIIQQNLKKIGII","β-galactosidase activity (FUS1-LacZ), No Alpha Factor",[1],19+/−4 units
same,"β-galactosidase activity (FUS1-LacZ), Plus Alpha Factor",[1],273 +/− 49 units
same,"β-galactosidase activity (FUS1-LacZ), No Alpha Factor",[1]; listed as GPA1,19 +/− 4 units
same,agonist-dependent activation of FUS1-HIS3 (halo of cell growth),melatonin ML1B receptor,activated FUS1-HIS3 in response to melatonin
same,agonist-dependent activation of FUS1-HIS3 (halo of cell growth),Ste2p,increased expression of FUS1-HIS3 to enable a halo of cell growth

# — patent US6509447B1, “G protein chimeras and methods of screening compounds” (Glaxo Welcome Inc., priority 1997, dated 2003)
